This data set concerns the molecule itself. The experiment in a line: SEC-MALS; Superdex 200 10/300, 20 mM Tris-HCl pH 8.0, 150 mM NaCl, 0.4 mL/min, 25°C; BSA as the reference.

This is an account of results in publication PMC7707506, “The crystal structure of mouse IRG1 suggests that cis-aconitate decarboxylase has an open and closed conformation” (PLoS ONE, 2020).

B1: full-length mouse IRG1 (immune responsive gene 1) (enzyme, Mus musculus (mouse), UniProt P54987 1-488, looked up)
chain: MMLKSVTESFAGMIHGLKVNHLTDGIIRRSKRMILDSLGVGFLGTGTEVFHKVTQYSKIYSSNTSSTVWGRPDFRLPPTYAAFVNGVAVHSMDFDDTWHPATHPSGAVLPVLTALSEALPQIPKFSGLDLLLAFNVGIEVQGRLMHFSKEAKDIPKRFHPPSVVGTLGSAAAASKFLGLSLTKCREALAIAVSHAGAPIANAATQTKPLHIGNAAKHGMEATFLAMLGLQGNKQILDLGSGFGAFYANYSPEDLPSLDSHIWLLDQQDVAFKSFPAHLATHWVADAAAAVRKHLVTPERALFPADHIERIVLRIPDVQYVNRPFPDSEHEARHSFQYVACASLLDGSITVPSFHSQQVNRPQVRELLKKVKLEHPPDNPPSFDTLYCEISITLKDGTTFTERSDTFYGHWRKPLSQEDLRNKFRANASKMLCRDTVESLITVVEKLEDLEDCSVLTRLLKGPSVQDEASKLSSMSSFDHTTLPRFTNI
notes: immune responsive gene 1 (IRG1, cis-aconitate decarboxylase), Mus musculus, NCBI NP_032418.1, full length, residues 1 to 488, cloned into pET21a (NdeI/XhoI); In the crystal, molecule A was modelled from residues 5 to 463 and molecule B from residues 4 to 460; the rest was not traceable; also called cis-aconitate decarboxylase; CAD; source: E. coli BL21 (DE3), purified (Ni-NTA, SEC); not shown: …
As to B1, the stoichiometry N (as a rule, the number of molecules, sites or subunits per partner or assembly) worked out at 2.
